Changes are numbered by the printed parent chain.
B1: clone 29 (scFv, yeast display) (scFv, V domains shown)
VH: QIQLLQSGPELKKPGETVKISCKASGYTFTDYSMHWVKQAPGKGLKWVARINTETGEPTFADDFRGRFAVSLETSASTAYLQINNLKNEDTATYFCAIYYYGRDSWGQGTTLTVSS
VL: DIVMSQSPSSLAVSAGEKVTMSCKSSQSLLNSRTRKNYLAWYQQKPGQSPRLLIYWASTRESGVPDRFTGSGSGTDFTLTISSVQAEDLAVYYCKQSYNLLTFGAGTKLELKA
notes: scFv on yeast
B2: clone 44 (scFv, yeast display) (scFv, V domains shown)
VH: B1 VH
VL: B1 VL with A86D
notes: scFv on yeast
B3: C6 VH / RGD3-10 Vk murine IgG (antibody, V domains shown)
VH: B1 VH with Y99F
VL: DIVMTQSPSSLAVSAGEKVTMSCKSSQSLLGRGDLGRLKKQKDHWYQQKPGQSPRLLIYWASTRESGVPDRFTGSGSGTDFTLTISSVQAEDLAVYYCKQSYNLLSFGAGTKLELKR
notes: Murine IgG, supernatant of 293 cells; CDRL1 swap into the C6D4 murine IgG vector, VH not altered; also called C6RGD3-10
B4: C6 VH / RGD3-9 Vk murine IgG (antibody, V domains shown)
VH: B1 VH with Y99F
VL: DIVMTQSPSSLAVSAGEKVTMSCKSSQSLLGRGDLGRLKKQKDHHWYQQKPGQSPRLLIYWASTRESGVPDRFTGSGSGTDFTLTISSVQAEDLAVYYCKQSYNLLSFGAGTKLELKR
notes: Murine IgG, supernatant of 293 cells; CDRL1 swap into the C6D4 murine IgG vector, VH not altered; also called C6RGD3-9
B5: C6 VH / RGD3-12 Vk murine IgG (antibody, V domains shown)
VH: B1 VH with Y99F
VL: DIVMTQSPSSLAVSAGEKVTMSCKSSQSLLGRGDLGRLKKQKWYQQKPGQSPRLLIYWASTRESGVPDRFTGSGSGTDFTLTISSVQAEDLAVYYCKQSYNLLSFGAGTKLELKR
notes: Murine IgG, supernatant of 293 cells; CDRL1 swap into the C6D4 murine IgG vector, VH not altered; also called C6RGD3-12
B6: C6 VH / RGD2 Vk murine IgG (antibody, V domains shown)
VH: B1 VH with Y99F
VL: DIVMTQSPSSLAVSAGEKVTMSCKSSQSLLNSGRGDLGNALAWYQQKPGQSPRLLIYWASTRESGVPDRFTGSGSGTDFTLTISSVQAEDLAVYYCKQSYNLLSFGAGTKLELKR
notes: Murine IgG, supernatant of 293 cells; CDRL1 of the C6D4 murine IgG vector replaced by the printed loop, VH not altered; also called C6D4-RGD2; C6RGD2
B7: C6 VH / RGD1 Vk murine IgG (antibody, V domains shown)
VH: B1 VH with Y99F
VL: B1 VL with S5T, N31G, S32R, R33G, T34D, R35L, K36G, Y38A, T102S, A113R
notes: Murine IgG, supernatant of 293 cells; CDRL1 swap into the C6D4 murine IgG vector, VH not altered; also called C6D4-RGD1; C6RGD1
B8: C6 VH / RGD3-2 Vk murine IgG (antibody, V domains shown)
VH: B1 VH with Y99F
VL: DIVMTQSPSSLAVSAGEKVTMSCKSSQSLLGRGDLGRLKKQKDNALAWYQQKPGQSPRLLIYWASTRESGVPDRFTGSGSGTDFTLTISSVQAEDLAVYYCKQSYNLLSFGAGTKLELKR
notes: Murine IgG, supernatant of 293 cells; CDRL1 swap into the C6D4 murine IgG vector, VH not altered; also called C6RGD3-2
B9: C6 VH / RGD3-4 Vk murine IgG (antibody, V domains shown)
VH: B1 VH with Y99F
VL: B4 VL with K42N, D43A, H44L, H45A
notes: Murine IgG, supernatant of 293 cells; CDRL1 swap into the C6D4 murine IgG vector, VH not altered; also called C6RGD3-4
B10: C6 VH / RGD3-8 Vk murine IgG (antibody, V domains shown)
VH: B1 VH with Y99F
VL: DIVMTQSPSSLAVSAGEKVTMSCKSSQSLLGRGDLGRNALAWYQQKPGQSPRLLIYWASTRESGVPDRFTGSGSGTDFTLTISSVQAEDLAVYYCKQSYNLLSFGAGTKLELKR
notes: Murine IgG, supernatant of 293 cells; CDRL1 swap into the C6D4 murine IgG vector, VH not altered; also called C6RGD3-8
B11: C6 VH / RGD3-7 Vk murine IgG (antibody, V domains shown)
VH: B1 VH with Y99F
VL: B5 VL with K39N, K40A, Q41L, K42A
notes: Murine IgG, supernatant of 293 cells; CDRL1 swap into the C6D4 murine IgG vector, VH not altered; also called C6RGD3-7
B12: C6 VH / RGD3-1 Vk murine IgG (antibody, V domains shown)
VH: B1 VH with Y99F
VL: DIVMTQSPSSLAVSAGEKVTMSCKSSQSLLGRGDLGRLKKQKDHNALAWYQQKPGQSPRLLIYWASTRESGVPDRFTGSGSGTDFTLTISSVQAEDLAVYYCKQSYNLLSFGAGTKLELKR
notes: Murine IgG, supernatant of 293 cells; CDRL1 swap into the C6D4 murine IgG vector, VH not altered; also called C6RGD3-1
B13: C6 VH / RGD3-6 Vk murine IgG (antibody, V domains shown)
VH: B1 VH with Y99F
VL: DIVMTQSPSSLAVSAGEKVTMSCKSSQSLLGRGDLGRLKNALAWYQQKPGQSPRLLIYWASTRESGVPDRFTGSGSGTDFTLTISSVQAEDLAVYYCKQSYNLLSFGAGTKLELKR
notes: Murine IgG, supernatant of 293 cells; CDRL1 swap into the C6D4 murine IgG vector, VH not altered; also called C6RGD3-6
B14: C6 VH / RGD3-3 Vk murine IgG (antibody, V domains shown)
VH: B1 VH with Y99F
VL: DIVMTQSPSSLAVSAGEKVTMSCKSSQSLLGRGDLGRLKKQKNALAWYQQKPGQSPRLLIYWASTRESGVPDRFTGSGSGTDFTLTISSVQAEDLAVYYCKQSYNLLSFGAGTKLELKR
notes: Murine IgG, supernatant of 293 cells; CDRL1 swap into the C6D4 murine IgG vector, VH not altered; also called C6RGD3-3
B15: C6 VH / RGD3-11 Vk murine IgG (antibody, V domains shown)
VH: B1 VH with Y99F
VL: B13 VL with N40K, A41Q, L42K, A43D
notes: Murine IgG, supernatant of 293 cells; CDRL1 swap into the C6D4 murine IgG vector, VH not altered; also called C6RGD3-11

Each binder was assayed against T1, recombinant human integrin αvβ8 (human, UniProt P06756 31-992; P26012 43-684) (assay: scFv yeast display selection).
T1 construct: also called Human Integrin alpha V beta 8; purified recombinant αvβ8
T1 sequence (P06756 31-992 limits assumed, chain 1 of 2): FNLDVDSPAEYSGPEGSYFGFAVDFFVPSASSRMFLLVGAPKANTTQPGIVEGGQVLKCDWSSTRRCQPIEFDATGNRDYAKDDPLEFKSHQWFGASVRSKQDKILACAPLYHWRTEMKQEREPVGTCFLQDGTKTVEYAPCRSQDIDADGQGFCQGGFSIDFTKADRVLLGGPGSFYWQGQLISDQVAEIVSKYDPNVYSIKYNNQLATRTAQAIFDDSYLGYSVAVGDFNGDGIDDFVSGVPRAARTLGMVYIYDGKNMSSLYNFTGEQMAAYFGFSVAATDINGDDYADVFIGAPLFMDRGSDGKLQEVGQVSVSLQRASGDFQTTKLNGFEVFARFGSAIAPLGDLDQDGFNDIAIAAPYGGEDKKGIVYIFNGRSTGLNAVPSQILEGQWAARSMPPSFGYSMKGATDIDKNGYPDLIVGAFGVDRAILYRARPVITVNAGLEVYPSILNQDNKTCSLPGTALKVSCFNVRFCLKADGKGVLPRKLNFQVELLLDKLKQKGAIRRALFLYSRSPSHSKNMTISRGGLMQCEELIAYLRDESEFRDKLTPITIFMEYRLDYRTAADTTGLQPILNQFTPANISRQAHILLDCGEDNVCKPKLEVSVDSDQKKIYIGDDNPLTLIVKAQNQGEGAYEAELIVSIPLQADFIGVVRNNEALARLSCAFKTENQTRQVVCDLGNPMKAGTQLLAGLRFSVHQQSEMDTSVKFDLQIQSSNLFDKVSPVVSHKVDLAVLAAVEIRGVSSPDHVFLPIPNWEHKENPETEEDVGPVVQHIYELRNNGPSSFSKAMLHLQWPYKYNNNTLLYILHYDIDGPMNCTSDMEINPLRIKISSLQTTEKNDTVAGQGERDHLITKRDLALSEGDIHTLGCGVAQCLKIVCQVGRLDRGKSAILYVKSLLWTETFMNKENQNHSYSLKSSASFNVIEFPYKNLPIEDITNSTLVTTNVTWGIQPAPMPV
T1 sequence (P26012 43-684 limits assumed, chain 2 of 2): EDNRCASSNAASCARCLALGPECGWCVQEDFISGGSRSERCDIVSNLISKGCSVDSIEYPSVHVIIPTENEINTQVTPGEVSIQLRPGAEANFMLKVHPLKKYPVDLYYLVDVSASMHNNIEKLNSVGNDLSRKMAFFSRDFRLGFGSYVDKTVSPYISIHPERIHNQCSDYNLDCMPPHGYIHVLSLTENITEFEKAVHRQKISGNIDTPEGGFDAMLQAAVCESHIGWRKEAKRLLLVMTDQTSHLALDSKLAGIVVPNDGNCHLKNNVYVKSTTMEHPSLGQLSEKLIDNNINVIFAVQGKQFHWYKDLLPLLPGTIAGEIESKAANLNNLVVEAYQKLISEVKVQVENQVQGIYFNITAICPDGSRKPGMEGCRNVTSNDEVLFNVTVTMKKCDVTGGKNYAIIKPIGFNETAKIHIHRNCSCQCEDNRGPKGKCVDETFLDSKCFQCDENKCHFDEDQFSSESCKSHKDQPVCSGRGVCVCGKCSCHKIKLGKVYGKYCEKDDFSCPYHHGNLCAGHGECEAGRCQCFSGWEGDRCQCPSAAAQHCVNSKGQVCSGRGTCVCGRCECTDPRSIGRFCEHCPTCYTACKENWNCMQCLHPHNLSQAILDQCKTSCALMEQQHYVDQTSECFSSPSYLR

binding result | Binder
binds | B1
binds | B2

These binders were tested against T1, recombinant human integrin αvβ8 (assay: ELISA on coated recombinant human integrin; 0 = no apparent binding).
Excerpt: (§1) Binding was quantified by intensity as 0-4 (0 representing no apparent binding; 4 representing robust binding) and results normalized to expression.

Binder | binding result
B3 | no binding (tested: supernatant at 1/10 dilution)
B4 | no binding (tested: supernatant at 1/10 dilution)
B5 | no binding (tested: supernatant at 1/10 dilution)

The binders below were run against T2, recombinant human integrin αvβ6 (human, UniProt P18564 22-707) in the same assay as above.
T2 construct: also called αvβ6 (R&D systems); αvβ6 receptor
T2 sequence (chain, as listed by the source limits assumed, chain 1 of 2): as the sequence (P06756 31-992 limits assumed, chain 1 of 2) above
T2 sequence (P18564 22-707 limits assumed, chain 2 of 2): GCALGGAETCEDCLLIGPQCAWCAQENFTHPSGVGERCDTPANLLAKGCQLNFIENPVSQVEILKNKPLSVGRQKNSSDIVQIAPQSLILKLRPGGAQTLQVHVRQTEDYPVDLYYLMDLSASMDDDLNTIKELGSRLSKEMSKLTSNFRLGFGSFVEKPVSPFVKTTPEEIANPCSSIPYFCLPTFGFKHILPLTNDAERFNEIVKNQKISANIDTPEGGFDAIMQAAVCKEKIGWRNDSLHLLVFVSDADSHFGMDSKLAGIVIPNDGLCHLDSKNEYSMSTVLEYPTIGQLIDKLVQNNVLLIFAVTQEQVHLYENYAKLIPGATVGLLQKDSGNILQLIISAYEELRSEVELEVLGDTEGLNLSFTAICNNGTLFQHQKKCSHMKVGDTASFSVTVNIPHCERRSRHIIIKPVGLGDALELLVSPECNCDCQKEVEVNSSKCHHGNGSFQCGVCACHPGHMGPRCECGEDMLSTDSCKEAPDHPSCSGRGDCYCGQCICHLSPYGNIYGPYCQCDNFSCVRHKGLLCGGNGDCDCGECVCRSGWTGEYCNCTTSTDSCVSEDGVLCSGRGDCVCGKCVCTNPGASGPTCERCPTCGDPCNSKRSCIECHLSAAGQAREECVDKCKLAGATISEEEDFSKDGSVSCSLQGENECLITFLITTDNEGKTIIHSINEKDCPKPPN
Excerpt: as §1

Binder | binding result
B6 | no binding (tested: supernatant at 1/10 dilution)
B7 | no binding (tested: supernatant at 1/10 dilution)

These binders were tested against T3, recombinant human integrin αvβ1 (human, UniProt P05556 21-728) in the same assay as above.
T3 construct: Bought; also called αvβ1 (R&D systems)
T3 sequence (chain, as listed by the source limits assumed, chain 1 of 2): as the sequence (P06756 31-992 limits assumed, chain 1 of 2) above
T3 sequence (P05556 21-728 limits assumed, chain 2 of 2): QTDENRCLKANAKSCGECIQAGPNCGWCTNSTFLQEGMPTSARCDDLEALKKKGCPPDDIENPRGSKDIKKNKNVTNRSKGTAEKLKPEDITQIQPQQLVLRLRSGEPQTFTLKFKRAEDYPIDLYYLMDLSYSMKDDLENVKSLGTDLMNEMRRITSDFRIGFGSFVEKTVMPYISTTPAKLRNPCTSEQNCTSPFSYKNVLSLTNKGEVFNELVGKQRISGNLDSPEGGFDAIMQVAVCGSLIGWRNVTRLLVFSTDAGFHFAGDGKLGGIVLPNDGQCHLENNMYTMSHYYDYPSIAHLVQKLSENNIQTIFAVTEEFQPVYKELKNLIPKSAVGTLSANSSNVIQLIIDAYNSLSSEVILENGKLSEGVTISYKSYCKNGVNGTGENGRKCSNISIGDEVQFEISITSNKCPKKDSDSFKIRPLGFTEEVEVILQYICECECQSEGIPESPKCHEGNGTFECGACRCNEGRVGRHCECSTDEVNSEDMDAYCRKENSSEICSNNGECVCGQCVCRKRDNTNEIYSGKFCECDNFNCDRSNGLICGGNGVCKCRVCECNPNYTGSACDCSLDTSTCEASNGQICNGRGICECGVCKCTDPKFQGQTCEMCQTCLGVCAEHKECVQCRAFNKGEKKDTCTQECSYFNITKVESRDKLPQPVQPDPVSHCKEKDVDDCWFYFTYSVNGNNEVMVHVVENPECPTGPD
Excerpt: as §1

Binder | binding result
B3 | no binding (tested: supernatant at 1/10 dilution)
B8 | no binding (tested: supernatant at 1/10 dilution)
B9 | no binding (tested: supernatant at 1/10 dilution)
B10 | no binding (tested: supernatant at 1/10 dilution)
B11 | no binding (tested: supernatant at 1/10 dilution)
B12 | no binding (tested: supernatant at 1/10 dilution)
B13 | no binding (tested: supernatant at 1/10 dilution)
B14 | no binding (tested: supernatant at 1/10 dilution)
B4 | no binding (tested: supernatant at 1/10 dilution)
B15 | no binding (tested: supernatant at 1/10 dilution)
B5 | no binding (tested: supernatant at 1/10 dilution)
B6 | no binding (tested: supernatant at 1/10 dilution)
B7 | no binding (tested: supernatant at 1/10 dilution)

These binders were tested against T4, recombinant human integrin αvβ3 (human, UniProt P05106 27-718) in the same assay as above.
T4 construct: Bought; also called αvβ3 (R&D systems)
T4 sequence (chain, as listed by the source limits assumed, chain 1 of 2): as the sequence (P06756 31-992 limits assumed, chain 1 of 2) above
T4 sequence (P05106 27-718 limits assumed, chain 2 of 2): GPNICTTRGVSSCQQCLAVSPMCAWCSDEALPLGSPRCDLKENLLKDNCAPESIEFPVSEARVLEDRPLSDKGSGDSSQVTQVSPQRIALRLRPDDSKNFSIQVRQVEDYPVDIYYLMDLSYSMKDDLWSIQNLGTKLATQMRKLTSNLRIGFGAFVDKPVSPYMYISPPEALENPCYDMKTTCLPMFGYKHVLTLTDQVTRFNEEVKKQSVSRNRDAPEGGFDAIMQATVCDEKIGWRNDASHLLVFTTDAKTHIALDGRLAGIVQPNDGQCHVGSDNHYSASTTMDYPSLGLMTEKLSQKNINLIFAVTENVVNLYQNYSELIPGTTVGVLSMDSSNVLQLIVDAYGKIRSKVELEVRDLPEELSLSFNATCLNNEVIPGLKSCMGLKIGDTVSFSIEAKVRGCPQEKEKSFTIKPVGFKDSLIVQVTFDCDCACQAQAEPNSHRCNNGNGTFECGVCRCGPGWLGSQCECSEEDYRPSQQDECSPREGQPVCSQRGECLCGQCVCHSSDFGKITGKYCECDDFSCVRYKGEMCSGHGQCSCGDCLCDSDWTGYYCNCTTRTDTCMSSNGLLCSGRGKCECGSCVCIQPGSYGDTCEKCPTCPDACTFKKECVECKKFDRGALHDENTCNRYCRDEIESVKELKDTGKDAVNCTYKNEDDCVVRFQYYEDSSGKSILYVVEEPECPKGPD
Excerpt: as §1

Binder | binding result
B3 | no binding (tested: supernatant at 1/10 dilution)
B8 | no binding (tested: supernatant at 1/10 dilution)
B9 | no binding (tested: supernatant at 1/10 dilution)
B12 | no binding (tested: supernatant at 1/10 dilution)
B13 | no binding (tested: supernatant at 1/10 dilution)
B14 | no binding (tested: supernatant at 1/10 dilution)
B4 | no binding (tested: supernatant at 1/10 dilution)
B15 | no binding (tested: supernatant at 1/10 dilution)
B6 | no binding (tested: supernatant at 1/10 dilution)
B7 | no binding (tested: supernatant at 1/10 dilution)

What follows are binders tested against T5, recombinant human integrin αvβ5 (human, UniProt P18084 24-719) in the same assay as above.
T5 construct: Bought; also called αvβ5 (R&D systems)
T5 sequence (chain, as listed by the source limits assumed, chain 1 of 2): as the sequence (P06756 31-992 limits assumed, chain 1 of 2) above
T5 sequence (P18084 24-719 limits assumed, chain 2 of 2): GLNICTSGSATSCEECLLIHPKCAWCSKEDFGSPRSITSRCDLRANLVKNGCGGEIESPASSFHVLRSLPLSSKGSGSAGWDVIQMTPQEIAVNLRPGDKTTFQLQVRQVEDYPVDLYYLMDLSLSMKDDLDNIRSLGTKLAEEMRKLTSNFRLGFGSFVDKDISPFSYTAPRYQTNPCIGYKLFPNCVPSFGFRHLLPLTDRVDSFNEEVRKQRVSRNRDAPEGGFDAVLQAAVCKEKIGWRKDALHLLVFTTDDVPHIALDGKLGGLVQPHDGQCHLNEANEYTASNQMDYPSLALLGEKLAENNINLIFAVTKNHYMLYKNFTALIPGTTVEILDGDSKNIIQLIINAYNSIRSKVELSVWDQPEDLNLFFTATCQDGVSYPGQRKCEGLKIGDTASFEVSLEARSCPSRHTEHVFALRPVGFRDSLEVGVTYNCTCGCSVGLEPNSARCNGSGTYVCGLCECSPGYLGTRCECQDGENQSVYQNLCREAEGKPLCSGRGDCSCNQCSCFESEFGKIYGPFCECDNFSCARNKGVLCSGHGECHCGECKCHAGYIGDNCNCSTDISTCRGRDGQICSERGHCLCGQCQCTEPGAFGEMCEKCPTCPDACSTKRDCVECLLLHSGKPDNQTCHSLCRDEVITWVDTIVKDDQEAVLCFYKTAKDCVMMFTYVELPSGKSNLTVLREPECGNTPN
Excerpt: as §1

Binder | binding result
B3 | no binding (tested: supernatant at 1/10 dilution)
B8 | no binding (tested: supernatant at 1/10 dilution)
B9 | no binding (tested: supernatant at 1/10 dilution)
B10 | no binding (tested: supernatant at 1/10 dilution)
B11 | no binding (tested: supernatant at 1/10 dilution)
B12 | no binding (tested: supernatant at 1/10 dilution)
B13 | no binding (tested: supernatant at 1/10 dilution)
B14 | no binding (tested: supernatant at 1/10 dilution)
B4 | no binding (tested: supernatant at 1/10 dilution)
B15 | no binding (tested: supernatant at 1/10 dilution)
B5 | no binding (tested: supernatant at 1/10 dilution)
B6 | no binding (tested: supernatant at 1/10 dilution)
B7 | no binding (tested: supernatant at 1/10 dilution)

These binders were tested against T1, recombinant human integrin αvβ8 (assay: ELISA: integrin coated on plate, supernatant of transfected 293 cells at 1/10 dilution, anti-mouse IgG-HRP; score normalized to expression;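 further: scale runs from 0 (no apparent binding) to 4 (robust binding), with scores adjusted for clone protein expression as determined by a murine IgG ELISA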).
Excerpt: as §1

binding intensity score (0-4) | Binder
4 score 0-4 | B8
4 score 0-4 | B9
3 score 0-4 | B10
2 score 0-4 | B11
1 score 0-4 | B12
4 score 0-4 | B13
4 score 0-4 | B14
1 score 0-4 | B15
2 score 0-4 | B6
1 score 0-4 | B7

Each binder was assayed against T2, recombinant human integrin αvβ6 in the same assay as above.
Excerpt: as §1

binding intensity score (0-4) | Binder
1 score 0-4 | B3
4 score 0-4 | B8
4 score 0-4 | B9
3 score 0-4 | B10
2 score 0-4 | B11
4 score 0-4 | B12
4 score 0-4 | B13
4 score 0-4 | B14
3 score 0-4 | B4
2 score 0-4 | B15
2 score 0-4 | B5

What follows are binders tested against T4, recombinant human integrin αvβ3 in the same assay as above.
Excerpt: as §1

binding intensity score (0-4) | Binder
3 score 0-4 | B10
4 score 0-4 | B11
1 score 0-4 | B5

— patent publication US20210230279A1 (University of California, published 2021)
